Numbering of substitutions follows the chain as printed. Where “and” joins values, the source holds several entries; their conditions need not be identical. Identical values can stand only once. Like-named read-outs stand apart in the source and are kept apart here.
T1: mouse MSLN (Mus musculus, UniProt Q61468)
T1 sequence (Q61468 36-600): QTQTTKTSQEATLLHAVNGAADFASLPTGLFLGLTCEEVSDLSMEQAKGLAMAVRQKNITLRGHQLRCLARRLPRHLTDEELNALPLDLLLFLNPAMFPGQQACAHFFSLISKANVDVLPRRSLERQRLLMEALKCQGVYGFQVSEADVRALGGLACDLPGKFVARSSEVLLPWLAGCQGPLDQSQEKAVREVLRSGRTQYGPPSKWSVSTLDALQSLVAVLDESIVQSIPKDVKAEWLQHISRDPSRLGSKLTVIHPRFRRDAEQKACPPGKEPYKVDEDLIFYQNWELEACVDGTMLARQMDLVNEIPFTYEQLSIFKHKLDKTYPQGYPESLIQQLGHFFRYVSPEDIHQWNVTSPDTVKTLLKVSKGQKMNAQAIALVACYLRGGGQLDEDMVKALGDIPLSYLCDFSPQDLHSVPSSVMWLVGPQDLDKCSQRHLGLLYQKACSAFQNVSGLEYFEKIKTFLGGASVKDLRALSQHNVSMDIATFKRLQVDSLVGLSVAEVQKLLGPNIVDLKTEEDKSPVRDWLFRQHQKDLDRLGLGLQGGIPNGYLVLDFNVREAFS

B1: FS122m: mouse surrogate mAb2 of M9657 binding mouse MSLN and murine CD137, human IgG1 LALA; SEQ ID NOs 84 and 85 (antibody)
heavy: EVQLLESGGGLVQPGGSLRLSCAASGFTFSTYFMVWVRQAPGKGLEWVSMISPKSSNTYYADSVKGRFTISRDNSKNTLYLQMNSLRAEDTAVYYCARYHISPRFDYWGQGTLVTVSSASTKGPSVFPLAPSSKSTSGGTAALGCLVKDYFPEPVTVSWNSGALTSGVHTFPAVLQSSGLYSLSSVVTVPSSSLGTQTYICNVNHKPSNTKVDKKVEPKSCDKTHTCPPCPAPEAAGGPSVFLFPPKPKDTLMISRTPEVTCVVVDVSHEDPEVKFNWYVDGVEVHNAKTKPREEQYNSTYRVVSVLTVLHQDWLNGKEYKCKVSNKALPAPIEKTISKAKGQPREPQVYTLPPSRDEPYWSYVSLTCLVKGFYPSDIAVEWESNGQPENNYKTTPPVLDSDGSFFLYSKLTVMNYRWELGNVFSCSVMHEALHNHYTQKSLSLSPGK
light: EIVLTQSPGTLSLSPGERATLSCRASQSVSSSYLAWYQQKPGQAPRLLIYGASSRATGIPDRFSGSGSGTDFTLTISRLEPEDFAVYYCQQPFPFSFTFGQGTKVEIKRTVAAPSVFIFPPSDEQLKSGTASVVCLLNNFYPREAKVQWKVDNALQSGNSQESVTEQDSKDSTYSLSSTLTLSKADYEKHKVYACEVTHQGLSSPVTKSFNRGEC
modifications: FS122m (surrogate anti-mMSLN mCD137 Fcab G1-AA): Heavy chain AA (with LALA); Light chain AA
B2: M9657: tetravalent bispecific mAb2, Fab binds MSLN, CH3 Fcab binds CD137, human IgG1-LALA; heavy/light chain SEQ ID NOs 2 and 10 (antibody)
heavy: EVQLLESGGGLVQPGGSLRLSCAASGFTFTHTYMSWVRQAPGKGLEWVSAISPTYSTTNYADSVKGRFTISRDNNKNTLYLQMNSLRAEDTAVYYCARYNAYHAALDYWGQGTLVTVSSASTKGPSVFPLAPSSKSTSGGTAALGCLVKDYFPEPVTVSWNSGALTSGVHTFPAVLQSSGLYSLSSVVTVPSSSLGTQTYICNVNHKPSNTKVDKKVEPKSCDKTHTCPPCPAPEAAGGPSVFLFPPKPKDTLMISRTPEVTCVVVDVSHEDPEVKFNWYVDGVEVHNAKTKPREEQYNSTYRVVSVLTVLHQDWLNGKEYKCKVSNKALPAPIEKTISKAKGQPREPQVYTLPPSRDELPYIIPPYNQVSLTCLVKGFYPSDIAVEWESNGQPENNYKTTPPVLDSDGSFFLYSKLTVGADRWLEGNVFSCSVMHEALHNHYTQKSLSLSPG
light: B1 light with P92T, F93V, F95Y, S96P, F97Y
modifications: Heavy chain AA (with LALA); Light chain AA

Key:
[1] = test system: CT26 colon cancer cells; type: in vivo; details: for tumor growth inhibition (TGI): relative to the isotype control; for median survival: isotype control 17 days; for complete tumor regression: number of mice with complete regression per group
Procedure: (§1) The efficacy of the combination of an antibody molecule that binds MSLN and CD137 and a chemotherapeutic in enhancing an anti-cancer immune response compared to monotherapy with either the antibody molecule that binds MSLN and CD137 or the chemotherapeutic was assessed by studying the average tumour volume over time and prolonged survival in mouse tumour models. These mouse tumor models are described in more detail below.
(§2) CT26 cells were obtained from ATCC and cultured in RPMI media containing 2 mM L-glutamine, 10 mM HEPES, 1 mM sodium pyruvate, 4500 mg/L glucose, 1500 mg/L sodium bicarbonate, and 10% fetal bovine serum (FBS). JC cells were obtained from ATCC and were maintained in vitro as a monolayer culture at WuXi in RPMI-1640 supplemented with 10% heat-inactivated FBS. These tumor cell lines were individually maintained in vitro as monolayer cultures and grown at 37° C. in an atmosphere of 5% CO2. The cells were routinely sub-cultured twice weekly by TrypLE treatment. The cells growing in an exponential growth phase were harvested and counted for tumor inoculation. Wild-type BALB/c female mice were purchased from Charles River Laboratories, or from Lingchang Biological Technology Co. LTD. All mice were 8-12 weeks old at the start of studies and were housed and maintained as described below, under conditions that conform to The Guide for the Care and Use of Laboratory Animals, 8th Edition. All animal experiments were performed in accordance with EMD Serono Research Institutional (protocol 17-008, 20-005) and Wuxi AppTec Animal Care and Use Committee (IACUC) guidelines.
(§3) CT26 and JC tumor models were used to investigate the antitumor effect of a combination of an antibody molecule that binds MSLN and CD137 and a chemotherapeutic compared to monotherapy with the antibody molecule that binds MSLN and CD137 or the chemotherapeutic. Mice were treated with the anti-mMSLN-mCD137-huIgG1-LALA antibody molecule FS122m in combination with either of the two chemotherapeutics cisplatin or gemcitabine. For the CT26 model, female BALB/c mice were inoculated via subcutaneous (sc) injection in the right flank with 0.3×10^6 CT26 cells in 0.1 mL of PBS. Mice were randomized to treatment groups (n=10 mice/group) when the average tumor volume reached approximately 50-100 mm^3. For the JC model, female BALB/c mice were inoculated via sc injection at the right upper flank with JC tumor cells (5×10^6) in 0.1 mL of PBS. Treatments were started on day 14 after tumor inoculation when the average tumor size reached approximately 80 mm^3. FS122m and anti-HEL hIgG1 LALA isotype control were given as 5 mg/kg on the first, third and fifth day of treatment (Days 0, 2, and 4) via intraperitoneal (ip) injection. Cisplatin was given on Day 0 at 10 mg/kg via ip injection, and gemcitabine was given on Day 0 at 120 mg/kg via ip injection.
(§4) Mortality checks were performed once daily. Animals were checked daily for any effects of tumor growth and treatments on normal behavior such as mobility, food and water consumption (by looking only), eye/hair matting and any other abnormal effect as stated in the protocol. Body weights were recorded twice weekly and any mouse with a 20% loss of initial body weight loss was humanely sacrificed. Mice were humanely euthanized if their subcutaneous tumors reached a volume of 2500 mm^3.
(§5) Body weight was measured and recorded twice weekly until an endpoint was reached. Tumor sizes were measured twice per week in three dimensions using a caliper, and the volume was expressed in mm^3 using the formula: width×length×height×0.5236.
(§6) Differences in tumor growth between treatment groups were determined using two-way analysis of variance (ANOVA) and Tukey's Multiple Comparisons Test. The significance of survival was determined using Log-rank (Mantel-Cox) test. […]

[2] = test system: JC breast cancer cells; type: in vivo; details: for tumor growth inhibition (TGI): FS122m 5 mg/kg ip Days 0, 2, 4; for complete tumor regression: number of mice with complete regression per group
Procedure: as §1, §2, §3, §4, §5, §6

[3] = biological target: T2, CD137 (Homo sapiens, UniProt Q07011); details: monotherapy clinical studies, suspended; cited from earlier work
T2 construct: Clinical studies of both utomilumab and urelumab monotherapy were however suspended; host or cells: patients (endogenous CD137)

[4] = biological target: T1, mouse MSLN; test: Binding / cross-reactivity to mouse MSLN
[5] = biological target: mouse CD137 (Mus musculus, UniProt P20334); test: Binding / cross-reactivity to mouse CD137
[6] = cisplatin combination study, Day 17, FS122m 5 mg/kg ip Days 0, 2, 4, cisplatin 10 mg/kg ip Day 0
[7] = cisplatin combination study, FS122m 5 mg/kg ip Days 0, 2, 4, cisplatin 10 mg/kg ip Day 0
[8] = cisplatin combination study, Day 22 post treatment initiation, compared with the isotype control, cisplatin 10 mg/kg ip Day 0
[9] = cisplatin combination study, isotype control 22 days
[10] = gemcitabine combination study, monotherapies Day 14, combination compared on Day 18, FS122m 5 mg/kg ip Days 0, 2, 4, gemcitabine 120 mg/kg ip Day 0
[11] = gemcitabine combination study, Day 25, relative to the isotype control, gemcitabine 120 mg/kg ip Day 0
[12] = gemcitabine combination study, isotype control 27 days

mouse CD137, sequence (P20334 24-256): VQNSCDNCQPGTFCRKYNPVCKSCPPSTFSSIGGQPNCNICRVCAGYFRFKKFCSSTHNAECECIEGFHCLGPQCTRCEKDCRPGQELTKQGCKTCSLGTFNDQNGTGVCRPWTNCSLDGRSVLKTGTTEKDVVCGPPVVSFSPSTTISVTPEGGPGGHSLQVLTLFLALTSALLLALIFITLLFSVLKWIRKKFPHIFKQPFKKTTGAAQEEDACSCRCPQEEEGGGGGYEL
T2 sequence (Q07011 24-255): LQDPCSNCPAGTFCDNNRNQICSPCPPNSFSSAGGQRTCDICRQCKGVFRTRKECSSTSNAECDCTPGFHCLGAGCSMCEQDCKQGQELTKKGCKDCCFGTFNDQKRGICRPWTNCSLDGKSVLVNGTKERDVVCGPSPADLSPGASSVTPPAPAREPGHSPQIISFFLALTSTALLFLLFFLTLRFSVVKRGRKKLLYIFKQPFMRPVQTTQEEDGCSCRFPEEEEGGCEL

Molecule | tumor growth inhibition (TGI) [1, 6] | median survival [1, 7] | complete tumor regression ([1]; cisplatin combination study) | complete tumor regression ([1]; gemcitabine combination study) | tumor growth inhibition (TGI) [2, 8] | median survival [2, 9] | complete tumor regression ([2]; cisplatin combination study) | complete tumor regression ([2]; gemcitabine combination study) | clinical toxicity [3] | median survival ([1]; gemcitabine combination study) | tumor growth inhibition (TGI) [1, 10] | tumor growth inhibition (TGI) [2, 11] | median survival [2, 12] | binding affinity for mouse MSLN ([4]; compared with binding affinity of M9657 for human MSLN) | binding affinity for mouse CD137 ([5]; compared with binding affinity of M9657 for human CD137) | cross-reactivity with mouse MSLN [4] | cross-reactivity with mouse CD137 [5]
N.N.[Cl][Pt][Cl] [cisplatin] | 77.8% | 36.5 days | no complete tumor regression in 10 mice | no complete tumor regression in 9 mice | 44.9% | 29 days | no complete tumor regression in 10 mice | no complete tumor regression in 10 mice |  |  |  |  |  |  |  |  | 
urelumab: 1st generation CD137 agonist antibody |  |  |  |  |  |  |  |  | hepatotoxicity |  |  |  |  |  |  |  | 
Nc1ccn([C@@H]2O[C@H](CO)[C@@H](O)C2(F)F)c(=O)n1 [gemcitabine] |  |  |  | no complete tumor regression in any of 9 mice |  |  |  | no complete tumor regression in 10 mice |  | 22 days | 58.2% | 47.8% | 36 days |  |  |  | 
B1 | 61.3% | 24 days | 2 of 10 and 2 out of 10 | 3 of 9 | 60.1% | 33 days | 2 of 10 | 1 of 10 and 1 out of 10 |  | 35 days | 61.4% | 45.8% | 34 days | similar | similar |  | 
B2 |  |  |  |  |  |  |  |  |  |  |  |  |  |  |  | lack of cross-reactivity | lack of cross-reactivity
